# According to publication PMC8188299:
# Biological target: Recombinant hACE2 protein fused with mFc, residues 19-740 (human) (UniProt Q9BYF1)
# Test: SPR
# Sequence of UniProt Q9BYF1 (Q9BYF1 19-740): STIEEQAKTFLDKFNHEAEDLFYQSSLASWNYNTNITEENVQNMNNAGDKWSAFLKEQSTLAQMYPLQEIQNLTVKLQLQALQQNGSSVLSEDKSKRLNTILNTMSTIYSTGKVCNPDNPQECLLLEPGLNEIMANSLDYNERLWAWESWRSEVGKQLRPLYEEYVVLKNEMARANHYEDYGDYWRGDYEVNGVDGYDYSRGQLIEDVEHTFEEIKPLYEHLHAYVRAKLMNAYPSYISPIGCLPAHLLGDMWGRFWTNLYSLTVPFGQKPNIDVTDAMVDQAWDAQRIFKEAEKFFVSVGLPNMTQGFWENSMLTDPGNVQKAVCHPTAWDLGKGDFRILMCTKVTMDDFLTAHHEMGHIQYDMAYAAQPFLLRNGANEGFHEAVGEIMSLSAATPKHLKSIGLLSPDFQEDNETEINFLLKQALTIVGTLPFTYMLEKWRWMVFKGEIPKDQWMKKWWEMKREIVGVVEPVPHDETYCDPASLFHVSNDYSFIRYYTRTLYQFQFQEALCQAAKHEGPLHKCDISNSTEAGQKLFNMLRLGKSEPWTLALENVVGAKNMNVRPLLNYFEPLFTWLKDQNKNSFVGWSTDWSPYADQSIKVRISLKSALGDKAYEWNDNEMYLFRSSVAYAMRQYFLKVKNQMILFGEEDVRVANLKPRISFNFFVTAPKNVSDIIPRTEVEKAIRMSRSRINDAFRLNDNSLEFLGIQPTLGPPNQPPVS
substance,measurement,value
"Recombinant RsYN04 RBD protein, residues 309-527 (domain or fragment)",Kd,15.9 µM
